Data taken from patent US20250188186A1.

What was measured:
[1] = molecular target: GST-tagged human FcRn-β2m (human) (UniProt P55899); test: ELISA, antibody immobilized, FcRn titrated (the concentration is that of FcRn), anti-FLAG-HRP, pH 6.0 [pH 6.0]
[2] = molecular target: human FcγRIIa R131 ectodomain, N-terminal AVI and C-terminal His tags (human) (UniProt P12318); test: BLI, antibody on FAB2G tips, FcγRIIa R131 in solution, pH 6.5, steady-state Kd,SS
[3] = molecular target: human FcγRIIb ectodomain, N-terminal AVI and C-terminal His tags (human) (UniProt P31994); test: BLI, antibody on FAB2G tips, FcγRIIb in solution, pH 6.5, steady-state Kd,SS
Chain of human FcγRIIb ectodomain, N-terminal AVI and C-terminal His tags (human) (P31994 43-217): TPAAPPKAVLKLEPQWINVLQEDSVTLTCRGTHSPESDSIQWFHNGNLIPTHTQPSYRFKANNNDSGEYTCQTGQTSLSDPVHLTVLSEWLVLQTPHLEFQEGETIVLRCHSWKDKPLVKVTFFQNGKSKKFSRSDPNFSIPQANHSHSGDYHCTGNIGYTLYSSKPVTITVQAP

[4] = molecular target: human FcγRIIb ectodomain, N-terminal AVI and C-terminal His tags (human) (UniProt P31994); test: BLI, antibody on FAB2G tips, FcγRIIb in solution, pH 7.4, steady-state Kd,SS
[5] = molecular target: human FcγRIIIa F158 ectodomain, N-terminal AVI and C-terminal His tags (human) (UniProt P08637); test: BLI, antibody on FAB2G tips, FcγRIIIa F158 in solution, pH 6.5, kinetic Kd
Chain of human FcγRIIIa F158 ectodomain, N-terminal AVI and C-terminal His tags (human) (P08637 17-208): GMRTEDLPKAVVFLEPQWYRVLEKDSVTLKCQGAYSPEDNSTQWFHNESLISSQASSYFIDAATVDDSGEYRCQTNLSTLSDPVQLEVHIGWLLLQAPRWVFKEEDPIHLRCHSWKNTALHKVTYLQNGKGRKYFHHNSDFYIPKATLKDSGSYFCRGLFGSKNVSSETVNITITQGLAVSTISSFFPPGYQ

[6] = molecular target: human FcγRIIa H131 ectodomain, N-terminal AVI and C-terminal His tags (human) (UniProt P12318); test: BLI, antibody on FAB2G tips, FcγRIIa H131 in solution, pH 7.4, steady-state Kd,SS
Chain of human FcγRIIa H131 ectodomain, N-terminal AVI and C-terminal His tags (human) (P12318 34-217): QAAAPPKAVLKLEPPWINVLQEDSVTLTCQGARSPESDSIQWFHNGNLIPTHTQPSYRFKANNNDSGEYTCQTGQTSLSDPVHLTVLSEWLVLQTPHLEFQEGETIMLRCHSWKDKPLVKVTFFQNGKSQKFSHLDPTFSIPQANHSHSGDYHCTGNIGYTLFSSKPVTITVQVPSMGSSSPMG

[7] = molecular target: human FcγRIIIa F158 ectodomain, N-terminal AVI and C-terminal His tags (human) (UniProt P08637); test: BLI, antibody on FAB2G tips, FcγRIIIa F158 in solution, pH 6.5, steady-state Kd,SS (Langmuir fit)
[8] = molecular target: human FcγRIIa R131 ectodomain, N-terminal AVI and C-terminal His tags (human) (UniProt P12318); test: BLI, antibody on FAB2G tips, FcγRIIa R131 in solution, pH 7.4, steady-state Kd,SS
[9] = molecular target: human FcγRIIIa F158 ectodomain, N-terminal AVI and C-terminal His tags (human) (UniProt P08637); test: BLI, antibody on FAB2G tips, FcγRIIIa F158 in solution, pH 7.4, steady-state Kd,SS (Langmuir fit)
[10] = molecular target: human FcγRIIa H131 ectodomain, N-terminal AVI and C-terminal His tags (human) (UniProt P12318); test: BLI, antibody on FAB2G tips, FcγRIIa H131 in solution, pH 6.5, steady-state Kd,SS
[11] = molecular target: human FcγRIIIa F158 ectodomain, N-terminal AVI and C-terminal His tags (human) (UniProt P08637); test: BLI, antibody on FAB2G tips, FcγRIIIa F158 in solution, pH 7.4, kinetic Kd
[12] = molecular target: FcγRIIIa allele V158 on NK-92 effector cells (human) (UniProt P08637); test: cell-based or functional assay
Chain of FcγRIIIa allele V158 on NK-92 effector cells (human) (P08637 17-254 F176V): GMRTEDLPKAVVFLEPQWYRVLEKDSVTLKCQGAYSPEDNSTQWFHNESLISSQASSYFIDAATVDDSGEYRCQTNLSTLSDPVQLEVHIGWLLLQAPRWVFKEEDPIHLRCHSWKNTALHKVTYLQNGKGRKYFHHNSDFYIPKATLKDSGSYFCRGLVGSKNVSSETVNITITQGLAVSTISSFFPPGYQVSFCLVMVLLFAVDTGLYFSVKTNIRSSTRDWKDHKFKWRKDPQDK

Chain of human FcγRIIa R131 ectodomain, N-terminal AVI and C-terminal His tags (human) (P12318 34-217 H167R): as the sequence (P12318 34-217) above, with H134R counted along it
Chain of GST-tagged human FcRn-β2m (human) (P55899 24-297 limits assumed, chain 1 of 2): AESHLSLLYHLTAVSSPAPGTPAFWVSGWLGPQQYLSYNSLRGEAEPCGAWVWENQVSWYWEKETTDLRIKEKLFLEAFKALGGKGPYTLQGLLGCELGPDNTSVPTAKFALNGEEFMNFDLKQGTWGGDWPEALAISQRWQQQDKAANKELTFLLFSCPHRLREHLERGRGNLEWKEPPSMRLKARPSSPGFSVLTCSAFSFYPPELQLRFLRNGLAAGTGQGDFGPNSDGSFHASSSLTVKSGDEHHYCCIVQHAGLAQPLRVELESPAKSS
Chain of GST-tagged human FcRn-β2m (human) (P61769 21-119 limits assumed, chain 2 of 2, further chain): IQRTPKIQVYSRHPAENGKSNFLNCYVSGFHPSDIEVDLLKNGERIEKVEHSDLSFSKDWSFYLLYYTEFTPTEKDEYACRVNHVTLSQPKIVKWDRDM

| Substance | EC50 (read off the curve) [1] | Kd [2] | Kd [3] | Kd [4] | Kd [5] | Kd [6] | Kd [7] | Kd [8] | Kd [9] | Kd [10] | Kd [11] | ADCC EC50, SKBR3 target cells, NK-92 (V158) effector cells, pH 6.5 [12] | ADCC EC50, SKBR3 target cells, NK-92 (V158) effector cells, pH 7.4 [12] | ADCC: lysis of calcein-loaded SKOV3 target cells, 50 ng/mL antibody, E:T 10:1, 4 h, pH 6.5 [12] | ADCC: lysis of calcein-loaded SKOV3 target cells, 50 ng/mL antibody, E:T 10:1, 4 h, pH 7.4 [12] |
| --- | --- | --- | --- | --- | --- | --- | --- | --- | --- | --- | --- | --- | --- | --- | --- |
| hu4D5 antibody with M252Y/S254T/T256E (YTE) Fc | 0.01 µg/mL | – | – | – | – | – | – | – | – | – | – | – | – | – | – |
| hu4D5 antibody with acid-Fc (S267E, H268D, Y296H) | – | 37.1 nM | 112 nM | 109 nM | 538 nM | 497 nM | 603 nM | 37.1 nM | 1090 nM | 331 nM | 909 nM | 121 ng/mL | 2310 ng/mL | 47.6% | 19.5% |
